Literature values in article PMC3436762.
pKd: −log10 of the molar value.

Biological target: TRAIL (Homo sapiens) (UniProt P50591)
Conditions: cited from earlier work

UniProt P50591, sequence (P50591 whole entry): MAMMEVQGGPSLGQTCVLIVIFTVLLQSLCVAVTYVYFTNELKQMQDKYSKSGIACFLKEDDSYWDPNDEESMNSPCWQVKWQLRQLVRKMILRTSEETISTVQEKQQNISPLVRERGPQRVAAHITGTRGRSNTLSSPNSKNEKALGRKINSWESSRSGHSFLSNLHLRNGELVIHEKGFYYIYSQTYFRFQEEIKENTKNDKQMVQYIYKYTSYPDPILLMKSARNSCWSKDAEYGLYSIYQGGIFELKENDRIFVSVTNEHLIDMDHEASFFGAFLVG

osteoprotegerin (from UniProt O00300)
pKd: 6.40
